Here are results for three molecules from article PMC11046300 (The Journal of Biological Chemistry, 2024).

B2: His-TEAD4-YBD (domain or fragment, human, UniProt Q15561 217-434, looked up)
chain: RSVASSKLWMLEFSAFLEQQQDPDTYNKHLFVHIGQSSPSYSDPYLEAVDIRQIYDKFPEKKGGLKDLFERGPSNAFFLVKFWADLNTNIEDEGSSFYGVSSQYESPENMIITCSTKVCSFGKQVVEKVETEYARYENGHYSYRIHRSPLCEYMINFIHKLKHLPEKYMMNSVLENFTILQVVTNRDTQETLLCIAYVFEVSASEHGAQHHIYRLVKE

What all share (experiment): pull-down
Assay [1] has as its target T1, GST-NF2 FERM domain (1-341 aa) (human, UniProt P35240 1-341).
T1 sequence (looked up): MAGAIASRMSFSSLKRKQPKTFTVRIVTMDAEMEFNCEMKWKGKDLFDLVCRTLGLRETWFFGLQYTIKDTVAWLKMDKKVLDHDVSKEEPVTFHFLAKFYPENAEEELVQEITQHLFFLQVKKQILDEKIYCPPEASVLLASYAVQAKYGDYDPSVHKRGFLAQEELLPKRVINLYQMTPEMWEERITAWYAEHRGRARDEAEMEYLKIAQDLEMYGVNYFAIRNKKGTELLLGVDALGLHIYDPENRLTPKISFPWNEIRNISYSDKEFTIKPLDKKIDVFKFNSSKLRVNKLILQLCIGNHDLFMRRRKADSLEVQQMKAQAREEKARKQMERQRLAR

Assay [2] concerns the target T2, GST-tagged full-length NF2 (human, UniProt P35240 1-595).
T2 sequence (looked up): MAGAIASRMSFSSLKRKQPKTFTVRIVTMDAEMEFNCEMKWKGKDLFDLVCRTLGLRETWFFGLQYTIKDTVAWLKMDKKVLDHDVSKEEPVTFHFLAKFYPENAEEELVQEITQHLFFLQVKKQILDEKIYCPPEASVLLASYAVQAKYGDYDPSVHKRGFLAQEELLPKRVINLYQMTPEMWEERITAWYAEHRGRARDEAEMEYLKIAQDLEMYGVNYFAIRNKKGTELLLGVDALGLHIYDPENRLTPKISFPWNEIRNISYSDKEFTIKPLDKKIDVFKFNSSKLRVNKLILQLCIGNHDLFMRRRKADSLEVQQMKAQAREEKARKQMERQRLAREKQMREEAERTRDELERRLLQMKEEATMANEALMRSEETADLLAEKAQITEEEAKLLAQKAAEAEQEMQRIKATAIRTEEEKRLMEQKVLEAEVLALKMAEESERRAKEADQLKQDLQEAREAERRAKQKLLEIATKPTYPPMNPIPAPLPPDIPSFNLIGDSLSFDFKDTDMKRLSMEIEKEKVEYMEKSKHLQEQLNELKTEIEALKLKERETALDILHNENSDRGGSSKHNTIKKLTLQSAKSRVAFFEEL

Assay [3] deals with T3, GST-NF2 C-terminal half (342-595 aa) (human, UniProt P35240 342-595).
T3 sequence (looked up): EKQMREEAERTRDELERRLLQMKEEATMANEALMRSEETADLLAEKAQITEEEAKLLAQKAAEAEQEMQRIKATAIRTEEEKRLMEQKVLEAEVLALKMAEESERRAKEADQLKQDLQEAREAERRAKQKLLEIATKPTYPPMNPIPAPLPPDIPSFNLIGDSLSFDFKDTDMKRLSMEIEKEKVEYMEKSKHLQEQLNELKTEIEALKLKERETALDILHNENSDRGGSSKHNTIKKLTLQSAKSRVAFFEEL

A further assay has as its target T4, MBP-NF2 A585W (human, UniProt P35240 18-595, A585W).
T4 sequence (looked up): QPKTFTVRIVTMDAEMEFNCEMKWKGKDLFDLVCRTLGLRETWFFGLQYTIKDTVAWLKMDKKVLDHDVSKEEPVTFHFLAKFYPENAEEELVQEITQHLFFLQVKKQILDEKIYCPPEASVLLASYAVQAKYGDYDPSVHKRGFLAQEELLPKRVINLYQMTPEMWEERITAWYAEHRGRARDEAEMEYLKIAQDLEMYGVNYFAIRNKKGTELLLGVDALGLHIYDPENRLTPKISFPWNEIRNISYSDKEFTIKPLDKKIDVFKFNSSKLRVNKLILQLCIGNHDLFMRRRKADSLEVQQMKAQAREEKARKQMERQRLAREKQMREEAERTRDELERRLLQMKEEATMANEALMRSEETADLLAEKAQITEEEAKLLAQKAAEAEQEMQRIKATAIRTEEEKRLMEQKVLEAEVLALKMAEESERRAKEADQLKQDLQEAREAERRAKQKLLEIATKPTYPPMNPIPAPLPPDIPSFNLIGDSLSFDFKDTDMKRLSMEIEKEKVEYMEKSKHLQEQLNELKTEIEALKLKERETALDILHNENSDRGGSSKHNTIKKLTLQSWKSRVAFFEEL

The next assay has as its target T5, MBP-NF2 (18-595) (human, UniProt P35240 18-595).
T5 sequence (looked up): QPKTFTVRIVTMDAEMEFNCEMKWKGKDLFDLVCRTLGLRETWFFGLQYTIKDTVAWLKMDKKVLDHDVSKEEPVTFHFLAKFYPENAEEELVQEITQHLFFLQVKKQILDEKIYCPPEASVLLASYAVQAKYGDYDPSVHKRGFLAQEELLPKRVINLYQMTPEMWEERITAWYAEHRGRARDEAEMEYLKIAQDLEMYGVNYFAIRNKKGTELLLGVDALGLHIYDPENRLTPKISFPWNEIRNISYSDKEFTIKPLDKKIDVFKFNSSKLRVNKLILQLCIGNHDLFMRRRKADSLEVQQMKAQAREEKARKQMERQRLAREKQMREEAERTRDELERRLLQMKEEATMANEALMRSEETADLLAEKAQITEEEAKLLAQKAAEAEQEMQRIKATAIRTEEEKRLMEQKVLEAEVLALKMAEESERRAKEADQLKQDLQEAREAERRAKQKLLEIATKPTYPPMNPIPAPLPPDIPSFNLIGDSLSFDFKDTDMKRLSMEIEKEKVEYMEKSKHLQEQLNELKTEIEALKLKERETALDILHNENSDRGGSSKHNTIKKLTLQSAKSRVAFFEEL

The target in the assay “His-TEAD4-YBD” is B2.

B1: SUMO-His-tagged TEAD4 YBD domain (217-434) (domain or fragment, human, UniProt Q15561 217-434, looked up)
chain: RSVASSKLWMLEFSAFLEQQQDPDTYNKHLFVHIGQSSPSYSDPYLEAVDIRQIYDKFPEKKGGLKDLFERGPSNAFFLVKFWADLNTNIEDEGSSFYGVSSQYESPENMIITCSTKVCSFGKQVVEKVETEYARYENGHYSYRIHRSPLCEYMINFIHKLKHLPEKYMMNSVLENFTILQVVTNRDTQETLLCIAYVFEVSASEHGAQHHIYRLVKE
As to B1, the binding result in assay [1], in assay [2] and in assay [3] was “binds” in each case.
As to B2, the binding result (in assay [1]; in the assay with MBP-NF2 A585W; with MBP-NF2 (18-595)) was “binds” in each case.

B3: GST-NF2-507-595 (domain or fragment, human, UniProt P35240 507-595, looked up)
chain: FDFKDTDMKRLSMEIEKEKVEYMEKSKHLQEQLNELKTEIEALKLKERETALDILHNENSDRGGSSKHNTIKKLTLQSAKSRVAFFEEL
For B3, the binding result with His-TEAD4-YBD is on record as “binds”.
